Data as given in patent US20250381241, “METHODS AND COMPOSITIONS TO MODULATE RIOK2” (Dana-Farber Cancer Institute, Inc., published 2025).

B1: GATA1-WT duplex (dsDNA)
DNA 1: ACACACCTGTAGTCCCAGCTACTCAGGAGG
DNA 2: CCTCCTGAGTAGCTGGGACTACAGGTGTGT
B2: SPI1-WT duplex (dsDNA)
DNA 1: AAGGGGACTATCTCCCAGCGGCAGGCCCTT
DNA 2: AAGGGCCTGCCGCTGGGAGATAGTCCCCTT
B3: GATA2-WT duplex (dsDNA)
DNA 1: CTTGGGCTTTCCTCCCACCCGGGACTGGTG
DNA 2: CACCAGTCCCGGGTGGGAGGAAAGCCCAAG
B4: RUNX3-WT duplex (dsDNA)
DNA 1: CCGGGCGCCGCCCCCTGCGCCCTGAGGCCC
DNA 2: GGGCCTCAGGGCGCAGGGGGCGGCGCCCGG

Target: RIOK2 (rhRIOK2, full length) (Homo sapiens, UniProt Q9BVS4 SEQ:1-552)
Sequence (Q9BVS4 whole entry): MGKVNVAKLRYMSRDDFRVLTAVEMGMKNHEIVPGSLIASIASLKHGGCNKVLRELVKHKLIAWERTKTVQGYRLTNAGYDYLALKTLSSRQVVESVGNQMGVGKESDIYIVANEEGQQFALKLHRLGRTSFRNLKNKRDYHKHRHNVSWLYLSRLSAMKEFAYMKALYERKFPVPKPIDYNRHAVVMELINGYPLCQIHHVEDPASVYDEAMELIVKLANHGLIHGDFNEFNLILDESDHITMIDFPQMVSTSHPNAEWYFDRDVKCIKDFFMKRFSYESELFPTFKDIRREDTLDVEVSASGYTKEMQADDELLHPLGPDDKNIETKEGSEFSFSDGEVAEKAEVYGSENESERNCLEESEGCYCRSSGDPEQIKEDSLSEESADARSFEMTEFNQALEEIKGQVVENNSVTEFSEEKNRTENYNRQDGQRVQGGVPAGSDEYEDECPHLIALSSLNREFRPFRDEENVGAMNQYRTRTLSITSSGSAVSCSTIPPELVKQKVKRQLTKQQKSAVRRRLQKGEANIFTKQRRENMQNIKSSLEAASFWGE
Test: EMSA; low-salt buffer, 4 C, protein:DNA 5:1
Conditions: tags: GST; Abcam
Method: Recombinant human GST-tagged RIOK2 (rhRIOK2, Abcam) was incubated with duplex DNA (Table 5) at 5:1 molar ratio in a low-salt buffer for 20-30 minutes at 4° C. and 2% agarose gel was cast and cooled to 4° C. The DNA-protein mixture was supplemented with 0.22p filtered 50% glycerol solution to facilitate loading. The gel was run for 1.5 hours at 4° C., followed by incubation in ethidium bromide solution for 30 minutes and visualized using ChemiDoc Touch Imaging system (Bio-Rad). ImageJ was used to quantify band shifts.

Binding result, binds:
B1, B2, B3, B4
